Assay results from publication PMC9669019, “Molecular basis for integrin adhesion receptor binding to p21-activated kinase 4 (PAK4)” (Communications Biology, 2022).

Tests used:
integrin β5 tail [1] = experiment: Pull-down of wild-type and mutated GFP-PAK4 catalytic domain by wild-type integrin β5 tail; format: binding
Experimental: (§1) Pull down assays were performed as previously described[45],[60]. Briefly, constructs encoding an N-terminal His-tag followed by a helical region, a 4-glycine spacer, and an integrin cytoplasmic tail sequence were produced in BL21 (DE3) bacteria. Following bacterial cell lysis, recombinant protein was bound to Ni-NTA beads, eluted with imidazole, dialyzed and further purified by reverse-phase high-performance liquid chromatography (HPLC). Purified protein was lyophilized for storage and was used to coat fresh Ni-NTA beads to generate an affinity matrix for pull-down assays.
(§2) For pulldowns from cell lysates, human PAK4 constructs were generated in pEGFP (Takara Bio Inc.) by PCR amplification from a pLX304 PAK4 isoform 1 (Uniprot O96013-1) construct kindly provided by Michael Calderwood (Dana-Farber Cancer Institute). Mutations and deletions were introduced by QuikChange mutagenesis or PCR amplification. Chinese hamster ovary (CHO) cells were seeded on 10 cm tissue culture dishes and transiently transfected with GFP-tagged constructs using polyethylenimine (Polysciences). After 24 h, cells were harvested and lysed in buffer X (1 mM NaVO4, 50 mM NaF, 40 mM sodium pyrophosphate, 50 mM NaCl, 150 mM sucrose, 10 mM Pipes, pH 6.8) containing 0.5% Triton X-100, 0.2% deoxycholic acid, and complete EDTA-free protease inhibitor mixture (Roche, Indianapolis, IN, USA) for 15 min at 4 °C. After clarification by centrifugation, lysate was diluted in buffer X-T (buffer X with 0.05% Triton X-100) and incubated with His-tagged integrin tails coupled to Ni-NTA beads for 4 h with rocking at 4 °C. For experiments using purified PAK4cat, protein was incubated with His-tagged integrin tails coupled to Ni-NTA beads in buffer X-T for 2 h with rocking at 4 °C. Beads were then washed three times with buffer X-T, and bound proteins were fractionated by reducing SDS-PAGE and analyzed by immunoblotting with anti-GFP antibodies (600-101-215, Rockland). Immunoblots were imaged on an Odyssey IR imaging system (Li-Cor; Lincoln, NE, USA) and analyzed using Image Studio Lite (Li-Cor; Lincoln, NE, USA). For the quantification of binding from immunoblots, the fluorescence intensity of the band corresponding to bound material was quantified as a fraction of the fluorescence of the input material band for each condition. Loading of integrin tails was assessed by Coomassie Blue staining. Data were analyzed using GraphPad Prism.

integrin β5 tail [2] = experiment: Pull-down of wild-type and mutated full-length GFP-PAK4 by wild-type integrin β5 tail; format: binding
Experimental: as §1, §2

[3] = Figure 4G source data, PAK4 catalytic domain, replicate 1

Row | Binding to wild-type integrin β5 tail, normalized to cat-WT (integrin β5 tail [1]; [3]) | Binding to wild-type integrin β5 tail, normalized to cat-WT (integrin β5 tail [1]; Figure 4G, replicate 2) | Binding to wild-type integrin β5 tail, normalized to cat-WT (integrin β5 tail [1]; Figure 4G, replicate 3) | Binding to wild-type integrin β5 tail, normalized to cat-WT (integrin β5 tail [1]; Figure 4G, replicate 4) | Binding to wild-type integrin β5 tail, normalized to cat-WT (integrin β5 tail [1]; Figure 4G, replicate 5) | Binding to wild-type integrin β5 tail, normalized to cat-WT (integrin β5 tail [1]; Figure 4G, replicate 6) | Binding to wild-type integrin β5 tail, normalized to cat-WT (integrin β5 tail [1]; Figure 4G, replicate 7) | Binding to wild-type integrin β5 tail, normalized to FL-WT (integrin β5 tail [2]; Figure 4H source data, full-length PAK4, experiment row r4) | Binding to wild-type integrin β5 tail, normalized to FL-WT (integrin β5 tail [2]; Figure 4H, experiment row r7) | Binding to wild-type integrin β5 tail, normalized to FL-WT (integrin β5 tail [2]; Figure 4H, experiment row r13) | Binding to wild-type integrin β5 tail, normalized to FL-WT (integrin β5 tail [2]; Figure 4H, experiment row r14) | Binding to wild-type integrin β5 tail, normalized to FL-WT (integrin β5 tail [2]; Figure 4H, experiment row r15) | Binding to wild-type integrin β5 tail, normalized to FL-WT (integrin β5 tail [2]; Figure 4H, experiment row r5) | Binding to wild-type integrin β5 tail, normalized to FL-WT (integrin β5 tail [2]; Figure 4H, experiment row r6) | Binding to wild-type integrin β5 tail, normalized to FL-WT (integrin β5 tail [2]; Figure 4H, experiment row r8) | Binding to wild-type integrin β5 tail, normalized to FL-WT (integrin β5 tail [2]; Figure 4H, experiment row r9) | Binding to wild-type integrin β5 tail, normalized to FL-WT (integrin β5 tail [2]; Figure 4H, experiment row r17) | Binding to wild-type integrin β5 tail, normalized to FL-WT (integrin β5 tail [2]; Figure 4H, experiment row r19) | Molecule
1 | 0.1667 | 0.1098 | 2.475e-5 | 0.334 | 0.004908 | 0.1746 | 0.115 | 0.011 | 0.517 | 0.253 | 0.329 | 0.208 |  |  |  |  |  |  | D444R: GFP-tagged PAK4 D444R mutant; catalytic domain (Fig 4G) or full-length (Fig 4H) (protein, UniProt O96013 1-591, looked up, variant D444R, GFP tag; catalytic domain or full-length) Serine/threonine-protein …: MFGKRKKRVEISAPSNFEHRVHTGFDQHEQKFTGLPRQWQSLIEESARRPKPLVDPACITSIQPGAPKTIVRGSKGAKDGALTLLLDEFENMSVTRSNSLRRDSPPPPARARQENGMPEEPATTARGGPGKAGSRGRFAGHSEAGGGSGDRRRAGPEKRPKSSREGSGGPQESSRDKRPLSGPDVGTPQPAGLASGAKLAAGRPFNTYPRADTDHPSRGAQGEPHDVAPNGPSAGGLAIPQSSSSSSRPPTRARGAPSPGVLGPHASEPQLAPPACTPAAPAVPGPPGPRSPQREPQRVSHEQFRAALQLVVDPGDPRSYLDNFIKIGEGSTGIVCIATVRSSGKLVAVKKMDLRKQQRRELLFNEVVIMRDYQHENVVEMYNSYLVGDELWVVMEFLEGGALTDIVTHTRMNEEQIAAVCLAVLQALSVLHAQGVIHRDIKSRSILLTHDGRVKLSDFGFCAQVSKEVPRRKSLVGTPYWMAPELISRLPYGPEVDIWSLGIMVIEMVDGEPPYFNEPPLKAMKMIRDNLPPRLKNLHKVSPSLKGFLDRLLVRDPAQRATAAELLKHPFLAKAGPPASIVPLMRQNRTR
2 | 0.4077 | 0.4295 | 0.5407 | 0.2568 | 0.7435 | 0.2789 | 0.1085 |  | 0.561 |  |  |  | 0.029 | 0.62 | 0.262 | 0.4 | 0.03 | 0.1 | E512A: GFP-tagged PAK4 E512A mutant; catalytic domain (Fig 4G) or full-length (Fig 4H) (protein, UniProt O96013 1-591, looked up, variant E512A, GFP tag; catalytic domain or full-length) Serine/threonine-protein …: MFGKRKKRVEISAPSNFEHRVHTGFDQHEQKFTGLPRQWQSLIEESARRPKPLVDPACITSIQPGAPKTIVRGSKGAKDGALTLLLDEFENMSVTRSNSLRRDSPPPPARARQENGMPEEPATTARGGPGKAGSRGRFAGHSEAGGGSGDRRRAGPEKRPKSSREGSGGPQESSRDKRPLSGPDVGTPQPAGLASGAKLAAGRPFNTYPRADTDHPSRGAQGEPHDVAPNGPSAGGLAIPQSSSSSSRPPTRARGAPSPGVLGPHASEPQLAPPACTPAAPAVPGPPGPRSPQREPQRVSHEQFRAALQLVVDPGDPRSYLDNFIKIGEGSTGIVCIATVRSSGKLVAVKKMDLRKQQRRELLFNEVVIMRDYQHENVVEMYNSYLVGDELWVVMEFLEGGALTDIVTHTRMNEEQIAAVCLAVLQALSVLHAQGVIHRDIKSDSILLTHDGRVKLSDFGFCAQVSKEVPRRKSLVGTPYWMAPELISRLPYGPEVDIWSLGIMVIEMVDGAPPYFNEPPLKAMKMIRDNLPPRLKNLHKVSPSLKGFLDRLLVRDPAQRATAAELLKHPFLAKAGPPASIVPLMRQNRTR
